Legend:
Experiment in all cases: ELISA: Fc-His proteins (1 nM) captured on anti-6-His antibody, antibody A 10 µg/mL with human IgG 100 µg/mL, HRP anti-mouse IgG, OD450 as % of mouse EphA4-Fc-His
[1] = target: T1, mouse EphB4 extracellular region-Fc-His protein (mouse; human, UniProt P54761 16-539)
T1 construct: extracellular domain; not shown: Fc region of human IgG1; histidine tag
T1 sequence (looked up): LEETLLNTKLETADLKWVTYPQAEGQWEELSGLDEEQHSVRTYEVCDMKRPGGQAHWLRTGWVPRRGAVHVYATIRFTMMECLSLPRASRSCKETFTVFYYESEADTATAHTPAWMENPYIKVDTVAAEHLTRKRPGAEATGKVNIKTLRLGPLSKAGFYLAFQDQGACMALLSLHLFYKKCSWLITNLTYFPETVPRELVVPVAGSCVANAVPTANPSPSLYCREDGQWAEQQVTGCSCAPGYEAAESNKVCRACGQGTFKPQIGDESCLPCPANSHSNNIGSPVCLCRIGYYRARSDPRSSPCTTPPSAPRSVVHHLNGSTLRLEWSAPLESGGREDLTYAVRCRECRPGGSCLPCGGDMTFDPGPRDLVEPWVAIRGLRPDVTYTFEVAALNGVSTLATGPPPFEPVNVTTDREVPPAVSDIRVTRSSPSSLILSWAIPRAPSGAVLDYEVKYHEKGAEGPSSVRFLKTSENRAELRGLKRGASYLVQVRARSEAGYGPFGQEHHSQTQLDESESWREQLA
Experimental: (§1) Rabbit anti-6-His antibodies (Bethyl Laboratories) were coated onto the wells of a 96-well plate (Nunc). After incubating at 4° C. overnight, the wells were blocked at room temperature for 1 hour by 1% Block Ace (DS Pharma Biomedical). After washing 3 times with 0.05% Tween 20/PBS (Thermo […]), each Eph receptor of mouse extracellular region-Fc-His protein (final concentration 1 nM) was seeded into each well, and incubated at room temperature for 1 hour. After washing 3 times, human IgG solution (100 μg/mL, Sigma) and antibody A (10 μg/mL) were supplemented to the wells, and incubated at room temperature for 1 hour. Horseradish peroxidase-labeled donkey anti-mouse IgG antibody (Jackson ImmunoResearch Laboratories) was added, and incubated at room temperature for 1 hour. After washing 3 times, TMBZ (3,3′,5,5′-tetramethylbenzidine, Sigma) solution was added to the wells, and upon confirmation of modest coloring, an equal amount of quenching solution (1 N H₂SO₄, Wako Pure Chemicals) was added to the wells, and absorbance at 450 nm was read by a microplate reader (PerkinElmer).

[2] = target: T2, mouse EphA8 extracellular region-Fc-His protein (mouse; human, UniProt O09127 27-541)
T2 construct: extracellular domain; not shown: Fc region of human IgG1; histidine tag
T2 sequence (looked up): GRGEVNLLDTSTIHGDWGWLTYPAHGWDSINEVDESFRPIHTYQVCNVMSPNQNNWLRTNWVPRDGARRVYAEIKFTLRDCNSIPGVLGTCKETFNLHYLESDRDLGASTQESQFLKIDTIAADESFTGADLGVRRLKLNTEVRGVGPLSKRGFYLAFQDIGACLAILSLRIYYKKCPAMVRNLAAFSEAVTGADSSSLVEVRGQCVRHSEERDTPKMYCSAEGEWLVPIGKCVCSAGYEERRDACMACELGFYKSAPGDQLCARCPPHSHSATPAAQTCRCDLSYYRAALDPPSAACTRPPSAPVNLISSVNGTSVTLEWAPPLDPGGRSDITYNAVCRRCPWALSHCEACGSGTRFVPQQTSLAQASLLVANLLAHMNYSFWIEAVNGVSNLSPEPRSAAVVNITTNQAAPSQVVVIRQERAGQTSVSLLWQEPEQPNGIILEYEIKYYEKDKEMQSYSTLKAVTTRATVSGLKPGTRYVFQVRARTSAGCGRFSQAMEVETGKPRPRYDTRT
Experimental: as §1

[3] = target: T3, mouse EphB2 extracellular region-Fc-His protein (mouse; human, UniProt P54763 19-543)
T3 construct: extracellular domain; not shown: Fc region of human IgG1; histidine tag
T3 sequence (looked up): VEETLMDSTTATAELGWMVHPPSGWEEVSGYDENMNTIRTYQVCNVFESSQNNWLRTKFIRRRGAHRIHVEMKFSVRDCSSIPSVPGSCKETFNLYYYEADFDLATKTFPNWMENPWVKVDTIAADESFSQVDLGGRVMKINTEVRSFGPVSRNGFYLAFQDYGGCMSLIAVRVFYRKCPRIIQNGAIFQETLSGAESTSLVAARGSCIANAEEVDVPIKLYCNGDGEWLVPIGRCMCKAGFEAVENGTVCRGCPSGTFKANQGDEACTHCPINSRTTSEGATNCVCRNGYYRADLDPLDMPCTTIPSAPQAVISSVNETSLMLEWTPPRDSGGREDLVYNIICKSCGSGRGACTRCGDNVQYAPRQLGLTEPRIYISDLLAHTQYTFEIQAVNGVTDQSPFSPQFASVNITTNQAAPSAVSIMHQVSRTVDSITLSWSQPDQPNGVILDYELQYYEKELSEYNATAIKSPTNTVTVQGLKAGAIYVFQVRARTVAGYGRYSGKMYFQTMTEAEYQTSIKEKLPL
Experimental: as §1

Measured: binding result

B1: mouse anti-EphA4 monoclonal antibody (antibody A) (antibody, mouse IgG1, kappa, V domains shown)
VH: QVQLKQSGPSLVQPSQSLSITCTVSGFSLTRYGVHWVRQSPGKGLEWLGVIWRGGSTDYNAAFMSRLSITKDNSKSQVFFKMNSLQADDTAIYYCAKESLFGVYYDYGYYSMDYWGQGTSVTVSS
VL: DIQMTQSPSSLSASLGERVSLTCRASQEISGYLSWLQQKPDGTIKRLIYAASTLDSGVPKRFSGSRSGSDYSLTISSLESEDFADYYCLQYASYPLTFGAGTKLELKR
notes: purified from hybridoma supernatant
no binding (tested: 10 µg/mL): all assays above
